Results published in patent US20180291083A1 (IMMATICS BIOTECHNOLOGIES, published 2018).

target: T1, HLA-A*01:01 (human); experiment: UV ligand exchange ELISA; exchange yield grade
T1 construct: Peptide-receptive MHC class I monomer made by UV cleavage of a UV-sensitive ligand
Summary of the method: (§1)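 Peptide–MHC complexes formed by UV-ligand exchange, in which a UV-cleavable peptide is replaced by the test peptide. Exchange yield measured by ELISA detecting β2m of stabilised complexes captured on streptavidin, against refolded HLA-A*02:01/MLA-001 monomer standards (15-500 ng/ml); samples diluted 100-fold.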

Binder | peptide exchange yield
YVDAGTPMY | 50 to 75%
AAADHHSLY | 50 to 75%
FMDSESFYY | 10 to 20%
TFDLTVVSY | 20 to 50%
YTDKKSIIY | 50 to 75%
ISEAGKDLLY | 50 to 75%
YSHPQYSSY | 20 to 50%
YSDKEFAGSY | > 75%
ITDIHIKY | > 75%
LTDSEKGNSY | 50 to 75%
FTDIDGQVY | 50 to 75%
YSDIGHLL | 20 to 50%
ATDIVDSQY | 50 to 75%
WIGDKSFEY | 20 to 50%
RSDPGGGGLAY | 50 to 75%
VTEGVAQTSFY | > 75%
VTEEPQRLFY | > 75%
SVADIRNAY | 20 to 50%
HVDQDLTTY | 20 to 50%
STDSAGSSY | > 75%

target: T2, HLA-A*02:01 (human); experiment: UV ligand exchange ELISA; exchange yield grade
T2 construct: Peptide-receptive MHC class I monomer made by UV cleavage of a UV-sensitive ligand
Summary of the method: as §1

Binder | peptide exchange yield
FAFSGVLRA | 20 to 50%
SLFEGIYTI | > 75%
SLYVQQLKI | > 75%
KAYNRVIFV | 50 to 75%
ILHAQTLKI | 50 to 75%
FSLEDLVRI | 20 to 50%
YLLPSVVLL | > 75%
FLFDKLLLI | > 75%
YLNEKSLQL | > 75%
KLGPVAVSI | > 75%
